Measured values taken from publication PMC1669761 (Nucleic Acids Research, 2006).

Molecular target: T1, purified His-tagged Smad4 (human, UniProt Q13485 1-552)
T1 sequence (looked up): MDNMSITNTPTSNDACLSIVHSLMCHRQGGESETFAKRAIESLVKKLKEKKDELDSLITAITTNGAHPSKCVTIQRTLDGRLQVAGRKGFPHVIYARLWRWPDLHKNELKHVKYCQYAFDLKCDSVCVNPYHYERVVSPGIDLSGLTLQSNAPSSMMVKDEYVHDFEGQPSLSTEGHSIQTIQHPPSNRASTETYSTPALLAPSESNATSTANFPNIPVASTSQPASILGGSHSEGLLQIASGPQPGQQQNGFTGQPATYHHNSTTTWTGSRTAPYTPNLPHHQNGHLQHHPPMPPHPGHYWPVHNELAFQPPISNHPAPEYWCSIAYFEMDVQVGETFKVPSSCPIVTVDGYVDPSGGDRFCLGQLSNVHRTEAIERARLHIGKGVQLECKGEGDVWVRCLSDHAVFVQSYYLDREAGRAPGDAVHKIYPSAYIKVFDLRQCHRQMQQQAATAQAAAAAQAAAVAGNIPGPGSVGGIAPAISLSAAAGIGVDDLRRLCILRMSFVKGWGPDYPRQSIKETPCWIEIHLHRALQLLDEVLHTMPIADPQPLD
Assay: pull-down

binding result: binds
B1: GST-RBPMS(1–100) (domain or fragment)
chain: not shown
